We go through 1 substance from patent US20040014939.

In the data set the test system is T1, synthetic substrate Mcc-Pro-Leu-Gly-Pro-D-Lys(DNP)-OH.
T1 sequence: PLGPK

As to “luciferase as a fusion protein with 6×His tag”, the “enzyme activity (fluorescence intensity, excitation 345±10 nm, emission 425±10 nm, 37° C. for 1 h)” value is recorded as “the enzyme activity was not detected in the water-soluble fraction in the case of a control in which luciferase gene was introduced into the similar expression vector”.
